Patent US9533059 (GE HEALTHCARE, dated 2017)
Positions of bridges follow the written chain, without caps; N, C: chain ends.

Target: human c-Met receptor (human, UniProt P08581 25-1390)
Test: cell-based or functional assay

Sequence of human c-Met receptor (P08581 25-1390): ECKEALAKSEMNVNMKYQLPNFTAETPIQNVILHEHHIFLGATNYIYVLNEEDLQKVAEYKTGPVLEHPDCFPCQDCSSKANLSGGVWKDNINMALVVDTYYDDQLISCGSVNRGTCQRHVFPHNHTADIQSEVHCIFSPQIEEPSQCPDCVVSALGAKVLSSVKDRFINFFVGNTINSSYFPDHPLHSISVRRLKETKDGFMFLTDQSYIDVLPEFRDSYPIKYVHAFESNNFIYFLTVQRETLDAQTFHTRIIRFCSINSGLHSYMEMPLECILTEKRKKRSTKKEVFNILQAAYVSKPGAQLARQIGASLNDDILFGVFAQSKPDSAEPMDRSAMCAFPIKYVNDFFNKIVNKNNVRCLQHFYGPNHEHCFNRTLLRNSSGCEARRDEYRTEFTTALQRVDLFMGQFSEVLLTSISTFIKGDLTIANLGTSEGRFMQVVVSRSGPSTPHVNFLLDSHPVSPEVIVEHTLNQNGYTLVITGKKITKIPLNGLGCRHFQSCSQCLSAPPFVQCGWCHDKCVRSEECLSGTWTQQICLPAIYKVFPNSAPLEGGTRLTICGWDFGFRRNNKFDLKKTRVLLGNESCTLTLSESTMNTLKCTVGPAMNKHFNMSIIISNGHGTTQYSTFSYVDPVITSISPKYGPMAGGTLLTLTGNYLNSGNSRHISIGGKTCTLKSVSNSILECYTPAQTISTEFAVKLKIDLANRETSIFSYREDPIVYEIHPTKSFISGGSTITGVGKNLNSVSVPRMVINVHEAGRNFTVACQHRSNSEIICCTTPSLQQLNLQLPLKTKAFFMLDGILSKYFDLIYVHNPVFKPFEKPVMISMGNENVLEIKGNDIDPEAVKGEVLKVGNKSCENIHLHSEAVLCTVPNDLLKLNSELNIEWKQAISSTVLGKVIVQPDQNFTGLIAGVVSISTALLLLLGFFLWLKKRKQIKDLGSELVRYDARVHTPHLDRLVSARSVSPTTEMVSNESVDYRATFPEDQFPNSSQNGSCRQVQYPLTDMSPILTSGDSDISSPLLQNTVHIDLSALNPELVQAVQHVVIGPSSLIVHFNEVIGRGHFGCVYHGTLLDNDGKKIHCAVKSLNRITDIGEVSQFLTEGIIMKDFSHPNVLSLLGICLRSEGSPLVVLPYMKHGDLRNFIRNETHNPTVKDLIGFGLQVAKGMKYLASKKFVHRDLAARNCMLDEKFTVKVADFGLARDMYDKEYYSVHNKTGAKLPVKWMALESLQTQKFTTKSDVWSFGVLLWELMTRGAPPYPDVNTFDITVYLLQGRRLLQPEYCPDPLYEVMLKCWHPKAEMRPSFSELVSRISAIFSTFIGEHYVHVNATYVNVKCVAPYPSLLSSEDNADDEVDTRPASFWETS

HT-29 tumour uptake of Compound 3B with 1000-fold excess unlabelled peptide: 1.1 % id/g | reduction in HT-29 tumour uptake of Compound 3B with 1000-fold excess unlabelled peptide: 40%
Binder: Ac-AGSCYCSGPPRFECWCYETEGTGGGK(N‑(4-fluorobenzylidene)aminooxyacetyl)-NH2 (disulfide 6-14, 4-16) [Compound 3A]
